Experimental findings from article PMC3877120, “Pentavalent Single-Domain Antibodies Reduce Campylobacter jejuni Motility and Colonization in Chickens” (PLoS ONE, 2013) are described below.

For assay [1], the target named is T1, C. jejuni 81–176 flagella (Campylobacter jejuni strain 81–176, biotin (Sulfo-NHS-LC-LC-biotin), in the SPR only | biotin (Sulfo-NHS-LC-LC-biotin), in the SPR only).
T1 construct: flagellin FlaA of C. jejuni strain 81–176; flagellin FlaB of C. jejuni strain 81–176; also called flagellin; flagella protein; source: purified from C. jejuni 81–176 (sheared, ultracentrifugation, 1% SDS wash); also on formalin-fixed C. jejuni 81–176 cells
T1 chain 1: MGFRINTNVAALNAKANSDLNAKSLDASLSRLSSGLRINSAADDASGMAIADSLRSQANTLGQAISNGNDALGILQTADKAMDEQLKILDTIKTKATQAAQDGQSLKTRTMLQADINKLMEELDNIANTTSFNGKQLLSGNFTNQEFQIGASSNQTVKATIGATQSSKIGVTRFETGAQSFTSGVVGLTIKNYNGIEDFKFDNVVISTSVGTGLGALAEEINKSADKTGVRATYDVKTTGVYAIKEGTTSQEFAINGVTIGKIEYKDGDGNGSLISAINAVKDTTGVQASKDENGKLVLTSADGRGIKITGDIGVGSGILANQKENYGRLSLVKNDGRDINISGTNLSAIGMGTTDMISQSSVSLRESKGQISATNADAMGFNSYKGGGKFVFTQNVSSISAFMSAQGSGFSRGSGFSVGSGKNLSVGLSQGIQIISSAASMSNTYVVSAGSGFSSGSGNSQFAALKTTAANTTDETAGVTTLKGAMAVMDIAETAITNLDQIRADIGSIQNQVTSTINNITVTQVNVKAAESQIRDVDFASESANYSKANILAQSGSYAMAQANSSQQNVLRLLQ
T1 chain 2: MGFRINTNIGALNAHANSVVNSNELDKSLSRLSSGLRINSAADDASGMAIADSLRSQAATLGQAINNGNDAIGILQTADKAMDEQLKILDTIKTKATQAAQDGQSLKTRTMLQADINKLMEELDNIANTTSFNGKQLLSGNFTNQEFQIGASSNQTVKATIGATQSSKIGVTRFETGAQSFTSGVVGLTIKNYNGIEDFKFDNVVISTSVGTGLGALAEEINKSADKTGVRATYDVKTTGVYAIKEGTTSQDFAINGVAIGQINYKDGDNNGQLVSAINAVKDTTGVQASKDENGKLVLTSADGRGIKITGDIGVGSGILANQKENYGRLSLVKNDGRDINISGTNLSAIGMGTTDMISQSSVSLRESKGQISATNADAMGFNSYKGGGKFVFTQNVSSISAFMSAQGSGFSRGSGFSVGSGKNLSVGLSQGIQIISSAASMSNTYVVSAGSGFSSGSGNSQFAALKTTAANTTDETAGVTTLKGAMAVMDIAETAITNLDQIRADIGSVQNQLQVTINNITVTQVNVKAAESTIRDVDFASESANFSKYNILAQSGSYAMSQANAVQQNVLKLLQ
As to the kind of experiment: SPR; Biacore 3000; biotinylated flagella (700–900 RU) captured on an SA sensor chip; VHHs injected at 40 µl/min; 25°C; 10 mM HEPES pH 7.4, 150 mM NaCl, 3 mM EDTA, 0.005% P20; 1:1 interaction model. Particulars: both partners purified. (SPR reads the build-up and loss of mass on a sensor chip optically.)

Assay [2] has as its target T1, C. jejuni 81–176 flagella. As to the kind of experiment: ELISA; C. jejuni 81–176 flagella coated on Maxisorp plates (5 µg/ml in PBS); monomeric or pentameric VHH at 10 to 0.0001 µg/ml, 1 h at 37°C; detected with anti-His6-HRP; concentration of 50% maximum binding. The conditions noted are these: both partners purified.

B1: FlagV1M (monomeric flagella-specific VHH FlagV1) (VHH)
VHH: QVKLEESGGGLVQAGGSRRLSCATSGLTFRNFHMAWFRQVAGKEREVVAAISWSRDRQYYPDPVKGRFTITRDNAKNTVYLQMNSLKPEDTAVYYCAARTASASGDWYKGSYQYWGQGTQVTVSS
notes: llama VHH from an immune phage display library; also called FlagV1 VHH; source: E. coli TG1, periplasm, purified (IMAC; Superdex 75 before SPR)
Broadly, the Kd is a measure of binding affinity in units of concentration. Read a low Kd as a tighter complex. A word on the koff: it is the rate constant with which the complex falls apart. Usually kon stands for the rate constant with which the complex forms. A higher kon goes with faster complex formation. Broadly, the EC50 is the concentration needed to bring the measured effect to its halfway point. In assay [1], B1 registered a dissociation constant (Kd) of 20 nM, a koff of 0.002 s⁻¹ and a kon of 100000 M⁻¹ s⁻¹. In assay [2], this molecule returned a half-maximal effective concentration (EC50) of 15.6 nM.
